For one data set, the target named is T1, FPS2 (Arabidopsis thaliana, UniProt Q43315).
T1 construct: full length, 342 residues; cDNA pcNC2; GST fusion in E. coli BL21(DE3), GST removed with Factor Xa leaving no extra residues; homodimer
T1 sequence (Q43315 1-342): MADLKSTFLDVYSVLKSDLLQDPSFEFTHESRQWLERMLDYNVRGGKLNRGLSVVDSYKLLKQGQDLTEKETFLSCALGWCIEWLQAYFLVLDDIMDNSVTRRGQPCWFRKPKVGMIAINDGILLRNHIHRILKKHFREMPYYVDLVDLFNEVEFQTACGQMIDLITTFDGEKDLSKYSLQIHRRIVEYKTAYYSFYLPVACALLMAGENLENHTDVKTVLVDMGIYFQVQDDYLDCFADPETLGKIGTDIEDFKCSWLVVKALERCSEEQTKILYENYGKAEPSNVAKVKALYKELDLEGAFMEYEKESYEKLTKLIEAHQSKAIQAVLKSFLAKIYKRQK
As to the kind of experiment: radiometric [[…]-14C]IPP incorporation, acid hydrolysis and hexane extraction. The data set is classed as biochemical. Particulars: product inhibition; FPP 0 to 1 mM; PIPES pH 7.0, 37°C.

Another data set addresses T2, FPS1S (Arabidopsis thaliana, UniProt Q09152).
T2 construct: gene FPS1; short isoform, 343 residues, lacking the 41-residue N-terminal extension of FPS1L; cDNA pcNC3; GST fusion in E. coli BL21(DE3), GST removed with Factor Xa leaving no extra residues; homodimer
T2 sequence (Q09152 1-343 isoform Q09152-2): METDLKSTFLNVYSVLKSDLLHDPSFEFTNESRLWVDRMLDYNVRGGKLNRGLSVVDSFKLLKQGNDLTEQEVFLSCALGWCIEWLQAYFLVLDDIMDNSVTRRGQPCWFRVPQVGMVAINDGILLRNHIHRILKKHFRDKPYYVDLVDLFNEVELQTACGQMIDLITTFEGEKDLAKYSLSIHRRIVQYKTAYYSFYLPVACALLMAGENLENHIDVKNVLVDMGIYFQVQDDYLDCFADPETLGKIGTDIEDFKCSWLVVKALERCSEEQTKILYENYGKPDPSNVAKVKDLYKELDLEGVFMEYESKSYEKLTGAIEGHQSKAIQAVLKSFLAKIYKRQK
Described as above. Format: biochemical. Particulars: product inhibition; FPP 0 to 1 mM; PIPES pH 7.0, 37°C.

Substrate in data set [1]: CC(C)=CCOP(=O)(O)OP(=O)(O)O
Briefly: purified protein. Format: biochemical, Arabidopsis thaliana. Particulars: 100 µM IPP, 4 mM MgCl2, PIPES pH 7.0, 37°C, apparent Km, kcat per dimer.

Substrate in data set [2]: CC(C)=CCC/C(C)=C/COP(=O)(O)OP(=O)(O)O
Briefly: purified protein. The data set is classed as biochemical, Arabidopsis thaliana. Particulars: 100 µM IPP, 4 mM MgCl2, PIPES pH 7.0, 37°C, apparent Km, kcat per dimer.

Substrate in data set [3]: C=C(C)CCO[P@@](=O)(O)OP(=O)(O)O
Briefly: purified protein. Particulars: 200 µM DMAPP, 4 mM MgCl2, PIPES pH 7.0, 37°C, labelled compound, apparent Km, kcat per dimer.

For the molecule `CC(C)=CCC/C(C)=C/CC/C(C)=C/COP(=O)(O)OP(=O)(O)O` [FPP], the “% reduction of activity at 1 mM” value at FPS2 and at FPS1S was ~ 30% each time.

B1: FPS1S (Arabidopsis thaliana) (protein)
chain: T2 sequence (Q09152 1-343 isoform Q09152-2)
notes: short isoform, 343 residues, lacking the 41-residue N-terminal extension of FPS1L; cDNA pcNC3; GST fusion in E. coli BL21(DE3), GST removed with Factor Xa leaving no extra residues; homodimer
Broadly, the Km is the concentration of substrate that gives half-maximal velocity. A word on the kcat: it is the number of substrate molecules converted per active site and unit of time at saturation. The kcat/Km is the second-order rate constant that governs catalysis at low substrate concentration. With B1, the Km in “purified protein [1]” was determined as 22.7 ± 2.1 µM; in the data set “purified protein [2]”, 8.3 ± 1.2 µM; in the data set “purified protein [3]”, 23.1 ± 0.4 µM. The kcat in the data set “purified protein [1]” was 0.87 s⁻¹; in “purified protein [2]”, 0.607 s⁻¹; in the data set “purified protein [3]”, 1.04 s⁻¹. Besides, the kcat/Km in the data set “purified protein [1]” is 38300 M⁻¹ s⁻¹; in the data set “purified protein [2]”, 73300 M⁻¹ s⁻¹; in the data set “purified protein [3]”, 45000 M⁻¹ s⁻¹.

B2: FPS2 (Arabidopsis thaliana) (protein)
chain: T1 sequence (Q43315 1-342)
notes: full length, 342 residues; cDNA pcNC2; GST fusion in E. coli BL21(DE3), GST removed with Factor Xa leaving no extra residues; homodimer
Turning to B2, in the data set “purified protein [1]”, the Km turned out to be 31.5 ± 0.5 µM, the kcat was determined as 3.29 s⁻¹ and the kcat/Km was determined as 103000 M⁻¹ s⁻¹. In addition, in “purified protein [2]”, the Km stood at 11.3 ± 1.0 µM, the kcat was determined as 2.21 s⁻¹ and the catalytic efficiency (kcat/Km) came to 195000 M⁻¹ s⁻¹. Besides, in “purified protein [3]”, the Michaelis constant (Km) came out at 31.3 ± 0.5 µM, the catalytic constant (kcat) was determined as 4.48 s⁻¹ and the kcat/Km amounted to 143000 M⁻¹ s⁻¹.

The values are drawn from article PMC3492304, “Characterization of Arabidopsis FPS Isozymes and FPS Gene Expression Analysis Provide Insight into the Biosynthesis of Isoprenoid Precursors in Seeds” (PLoS ONE, 2012).
